# According to patent publication US20250042990A1 (Eli Lilly, published 2025):
# What was measured:
# [1] = biological target: T1, human IL-1β (human, UniProt P01584 117-269); assay: MSD-SET (solution equilibrium titration, electrochemiluminescence), 37° C., 72 h equilibrium
# T1 construct: also called hu IL-1β; huIL-1β
# Description: MSD (Meso Scale Discovery) electrochemiluminescence assay is utilized to measure the affinity of Antibody I, Antibody II, Antibody III, and Canakinumab to human IL-1β. First, the equilibrium mixture of antibodies and human IL-1β is set up; in the mixture the antibody concentrations are kept constant at 1 pM, 10 pM, and 100 pM whereas the ligand is titrated in the concentration ranging from 0.9 nM to 0.00004 nM (2.5 times dilution between concentrations). The equilibrium mixture is set up in sealed non-binding 96-well plate at 37° C. for 72 hours.
# MSD Gold Streptavidin plates are used to detect the free antibodies in the equilibrium mixture. The MSD plates are first blocked with blocking buffer (PBS+1% BSA) for 1 hour on a shaker set at 800 rpm and then washed 3 times with washing buffer PBST (PBS+0.05% Tween 20). The plates are coated with biotinylated human IL-1β followed by 3× washing with PBST. The equilibrium mixtures are added to the coated plate, incubated at room temperature with shaking for 2.5 mins and immediately washed 3× with PBST. The goat anti-human Sulfo-TAG antibody is added to the plate and incubated at room temperature for 1 hour with shaking. After three more washes, MSD Read Buffer at 1:2 concentration diluted in MilliQ water is added to the wells. Immediately afterwards, the plates are read using an MSD Sector Imager SI6000 instrument.
# [2] = biological target: T1, human IL-1β; assay: cell-based or functional assay
binder,measurement,setting,value
"Canakinumab (antibody, human IgG4 S228P, kappa, F234A L235A, V domains shown, Comparator) VH: QVQLVESGGGVVQPGRSLRLSCAASGFTFSVYGMNWVRQAPGKGLEWVAIIWYDGDNQYYADSVKGRFTISRDNSKNTLYLQMNGLRAEDTAVYYCARDLRTGPFDYWGQGTLVTVSS VL: EIVLTQSPDFQSVTPKEKVTITCRASQSIGSSLHWYQQKPDQSPKLLIKYASQSFSGVPSRFSGSGSGTDFTLTINSLEAEDAAAYYCHQSSSLPFTFGPGTKVDIKR",Kd,[1],0.0135 nM
same,"Avg. IC50, neutralization of human IL-1β (4 pM) in HEK-Blue IL-1β SEAP reporter cells",[2],26 pM
